Measured values published in the supplement of paper PMC9112550, “Optimization of the antimicrobial peptide Bac7 by deep mutational scanning” (BMC Biology, 2022).
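Also: peptides expressed intracellularly from a pBAD plasmid library in pooled LB shake-flask culture, induced with 0.3% L-arabinose, DNA abundance read by NGS, three biological replicates, DESeq2 with apeglm shrinkage.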

The sequences below were run on Escherichia coli TOP10 (assay: shrunken log2 fold change of peptide-encoding DNA abundance (4.5 h post-induction vs induction); higher = less antimicrobial activity (less host growth inhibition)). Conditions: time post-induction: 4.5 h; library: site-saturation at positions 5, 18, 19, 20.
For RRIRNRPPRLPRPRPRPEVVPRP, the “shrunken log2 fold change” value was -0.252. With RRIRLRPPRLPRPRPRPTVKPRP the “shrunken log2 fold change” value was -0.0583. In the case of RRIRGRPPRLPRPRPRPRREPRP, the “shrunken log2 fold change” value is reported as 0.381. With RRIRFRPPRLPRPRPRPLLNPRP the “shrunken log2 fold change” value was -0.549. With RRIRVRPPRLPRPRPRPYCVPRP the “shrunken log2 fold change” value was -0.125. For RRIRLRPPRLPRPRPRPASNPRP, the “shrunken log2 fold change” value was -0.124. For RRIRQRPPRLPRPRPRPWASPRP, the “shrunken log2 fold change” value was -0.017. In the case of RRIRNRPPRLPRPRPRPGFQPRP, the “shrunken log2 fold change” value is reported as -0.0148. With RRIRERPPRLPRPRPRPGRVPRP the “shrunken log2 fold change” value was 0.195. For RRIRERPPRLPRPRPRPMNYPRP, the “shrunken log2 fold change” value was -0.981. For RRIRMRPPRLPRPRPRPNYLPRP, the “shrunken log2 fold change” value was -0.212. RRIRYRPPRLPRPRPRPTWFPRP was tested, and the “shrunken log2 fold change” value was -0.351. In the case of RRIRFRPPRLPRPRPRPRKVPRP, the “shrunken log2 fold change” value is reported as 0.352. With RRIRSRPPRLPRPRPRPNGRPRP the “shrunken log2 fold change” value was -0.0415. In the case of RRIRLRPPRLPRPRPRPMDMPRP, the “shrunken log2 fold change” value is reported as -0.384. RRIRGRPPRLPRPRPRPWQFPRP was tested, and the “shrunken log2 fold change” value was 0.0819. In the case of RRIRARPPRLPRPRPRPKNVPRP, the “shrunken log2 fold change” value is reported as 0.166. RRIRVRPPRLPRPRPRPWTWPRP was tested, and the “shrunken log2 fold change” value was -0.135. RRIRERPPRLPRPRPRPHARPRP was tested, and the “shrunken log2 fold change” value was 0.198. For RRIRYRPPRLPRPRPRPPQRPRP, the “shrunken log2 fold change” value was 0.00441. For RRIRPRPPRLPRPRPRPVPLPRP, the “shrunken log2 fold change” value was 0.0768. In the case of RRIRCRPPRLPRPRPRPYTFPRP, the “shrunken log2 fold change” value is reported as -0.883. RRIRDRPPRLPRPRPRPHHVPRP was tested, and the “shrunken log2 fold change” value was -0.145. For RRIRTRPPRLPRPRPRPKDGPRP, the “shrunken log2 fold change” value was -0.0362. For RRIRVRPPRLPRPRPRPDENPRP, the “shrunken log2 fold change” value was -0.0618. In the case of RRIRPRPPRLPRPRPRPAAPPRP, the “shrunken log2 fold change” value is reported as 0.467. With RRIRMRPPRLPRPRPRPCFRPRP the “shrunken log2 fold change” value was 0.123. RRIRERPPRLPRPRPRPVWPPRP was tested, and the “shrunken log2 fold change” value was 0.0958. In the case of RRIRARPPRLPRPRPRPPPDPRP, the “shrunken log2 fold change” value is reported as 1.18. RRIRDRPPRLPRPRPRPINEPRP was tested, and the “shrunken log2 fold change” value was -0.144. With RRIRARPPRLPRPRPRPCSNPRP the “shrunken log2 fold change” value was -0.153. RRIRQRPPRLPRPRPRPYFWPRP was tested, and the “shrunken log2 fold change” value was -0.101. For RRIRGRPPRLPRPRPRPLCWPRP, the “shrunken log2 fold change” value was 0.774. RRIRKRPPRLPRPRPRPINRPRP was tested, and the “shrunken log2 fold change” value was -0.159. With RRIRLRPPRLPRPRPRPKDLPRP the “shrunken log2 fold change” value was -0.242. In the case of RRIRFRPPRLPRPRPRPAHFPRP, the “shrunken log2 fold change” value is reported as 0.0115. With RRIRNRPPRLPRPRPRPNFHPRP the “shrunken log2 fold change” value was -0.048. RRIRMRPPRLPRPRPRPTCYPRP was tested, and the “shrunken log2 fold change” value was 0.0375. With RRIRLRPPRLPRPRPRPWCIPRP the “shrunken log2 fold change” value was 0.0272. In the case of RRIRQRPPRLPRPRPRPCCQPRP, the “shrunken log2 fold change” value is reported as -0.00534. RRIRVRPPRLPRPRPRPHGIPRP was tested, and the “shrunken log2 fold change” value was 0.00955. For RRIRSRPPRLPRPRPRPCAYPRP, the “shrunken log2 fold change” value was -0.431. For RRIRERPPRLPRPRPRPWHYPRP, the “shrunken log2 fold change” value was -0.067. RRIRARPPRLPRPRPRPSGFPRP was tested, and the “shrunken log2 fold change” value was 0.0172. RRIRTRPPRLPRPRPRPRCEPRP was tested, and the “shrunken log2 fold change” value was 0.117. RRIRPRPPRLPRPRPRPHYYPRP was tested, and the “shrunken log2 fold change” value was -0.439. RRIRIRPPRLPRPRPRPALDPRP was tested, and the “shrunken log2 fold change” value was 1.45. For RRIRYRPPRLPRPRPRPCCWPRP, the “shrunken log2 fold change” value was 0.0911. RRIRTRPPRLPRPRPRPEKQPRP was tested, and the “shrunken log2 fold change” value was -0.0379. With RRIRTRPPRLPRPRPRPQMPPRP the “shrunken log2 fold change” value was 0.588. With RRIRLRPPRLPRPRPRPCHWPRP the “shrunken log2 fold change” value was -0.11. RRIRVRPPRLPRPRPRPEQYPRP was tested, and the “shrunken log2 fold change” value was -0.394. For RRIRMRPPRLPRPRPRPFFEPRP, the “shrunken log2 fold change” value was 0.597. With RRIRSRPPRLPRPRPRPQPGPRP the “shrunken log2 fold change” value was 0.287. RRIRYRPPRLPRPRPRPSMNPRP was tested, and the “shrunken log2 fold change” value was -0.863. With RRIRWRPPRLPRPRPRPSHMPRP the “shrunken log2 fold change” value was -0.668. For RRIRTRPPRLPRPRPRPHANPRP, the “shrunken log2 fold change” value was -0.254. For RRIRSRPPRLPRPRPRPLICPRP, the “shrunken log2 fold change” value was -0.221. For RRIRCRPPRLPRPRPRPCFLPRP, the “shrunken log2 fold change” value was -0.622. With RRIRPRPPRLPRPRPRPRWVPRP the “shrunken log2 fold change” value was 0.164. For RRIRCRPPRLPRPRPRPTLSPRP, the “shrunken log2 fold change” value was -0.0995. For RRIRKRPPRLPRPRPRPDVTPRP, the “shrunken log2 fold change” value was 1.47. In the case of RRIRSRPPRLPRPRPRPNWYPRP, the “shrunken log2 fold change” value is reported as -0.382. RRIRCRPPRLPRPRPRPQCVPRP was tested, and the “shrunken log2 fold change” value was -0.0975. With RRIRLRPPRLPRPRPRPPTHPRP the “shrunken log2 fold change” value was 0.147. In the case of RRIRSRPPRLPRPRPRPEGNPRP, the “shrunken log2 fold change” value is reported as -0.0126. With RRIRPRPPRLPRPRPRPCQTPRP the “shrunken log2 fold change” value was 0.0185. RRIRVRPPRLPRPRPRPLKCPRP was tested, and the “shrunken log2 fold change” value was -0.412. For RRIRARPPRLPRPRPRPYGEPRP, the “shrunken log2 fold change” value was -0.168. For RRIRERPPRLPRPRPRPSANPRP, the “shrunken log2 fold change” value was -0.35. In the case of RRIRARPPRLPRPRPRPKPAPRP, the “shrunken log2 fold change” value is reported as 0.711. With RRIRRRPPRLPRPRPRPKSRPRP the “shrunken log2 fold change” value was 0.174. In the case of RRIRARPPRLPRPRPRPWSIPRP, the “shrunken log2 fold change” value is reported as -0.0906. RRIRGRPPRLPRPRPRPANQPRP was tested, and the “shrunken log2 fold change” value was 0.329. With RRIRTRPPRLPRPRPRPKFQPRP the “shrunken log2 fold change” value was 0.114.
